Test system: MS2 coat protein
Assay: apparent KD of MS2 coat protein; designed switch direction (-1 OFF switch, 1 ON switch): 1; higher = weaker reporter binding
Procedure, shortened: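 Normalised cluster fluorescence was curve-fitted, and each design's median over clusters is its apparent KD. Before this, SNAP-549-labelled MS2 coat protein was titrated from 0.7 or 1.5 nM, doubling to 3 µM, over RNA switches transcribed on Illumina chips by stalled E. coli RNA polymerase. Titrations had no input, 200 uM small-molecule ligand, or an oligonucleotide input, and steps lasted 0.8–1.5 h (lowest) to 10–20 min (highest).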

[1] = input ligand: microRNA oligo, concentration not stated
[2] = Eterna round: R95, input ligand: microRNA oligo, concentration not stated
[3] = Eterna round: R95, input ligand: FMN 200 uM
[4] = Eterna round: R95, input ligand: none

Sequence	apparent KD of MS2 coat protein [1]	apparent KD of MS2 coat protein (input ligand: FMN 200 uM)	apparent KD of MS2 coat protein (input ligand: none)	apparent KD of MS2 coat protein [2]	apparent KD of MS2 coat protein [3]	apparent KD of MS2 coat protein [4]
UGUUGUAUUACAGGAUAUCUAUUAUUUUUAGUUAGAGAAGGGUAUUCACAUGAGGAUCACCCAUGUAUAUACGAGGAAGUUGUG [JMF's solution 26] (Eterna round: R96, puzzle: Same State NG 1)	35.7 nM	–	–	–	–	–
GGGAGAGGUACAGGAUAUGGUGAGGAUCACCCACUAGAAGGGUGCACAUGUGAAUCGGACAUGAGGAUCACCCAUGUUUGGCGU (Eterna round: R96, puzzle: Same State NG 1)	74.8 nM	86.7 nM	133 nM	–	–	–
GGUAGGUUACUACCAGACAUGAGGAUCACCCAUGUAAAUGGGAAGGAUAUGGUACCGUUUCGGUACCAGAAGGUCCUAAAUGAG [JL SSNG3 1.47] (Eterna round: R96, puzzle: Same State NG 3)	644 nM	301 nM	1750 nM	–	–	–
UAUGAACAUGAGGAUCACCCAUGUGGUAAGAUCACAGGAUAUCACCUCGGACGUGCGAUGUGAGAAGGGUGAUGGU [Same State 1 - Mod of Vinnie Anrelari v.2] (puzzle: Same State 1)	–	–	–	419 nM	–	–
UUGUUUUGUAAUUAACAUGAGGAUCACCCAUGUCUUGGCACAGAGGAUAUACAUGUUUGUUUGUAGUAGAAGGCUGUUUAUUGU [JR_SSNG3_Sub096] (Eterna round: R96, puzzle: Same State NG 3)	116 nM	128 nM	198 nM	–	–	–
CGUCCAGCCUGAGCUGGACAAAAGCAUGUACAUGAGGAUCACCCAUGUUCAUGUACAAGCUUUUUGCUCGUCUUAGA [salish99_208a_r3_072] (puzzle: Sensor for hsa-mir-208a)	–	–	–	15.3 nM	477 nM	432 nM
AACCUACAUGAGGAUCACCCAUGUAUCUGAGGCACAGGAUAUCGACAGGCAAGACACCUGCGAGAAGGGUGACCUC [Same State 1 - Mod of Vinnie Diatater v.2] (puzzle: Same State 1)	–	–	–	53.6 nM	–	–
GUGGUCAGACAUGAGGAUCACCCAUGUGGAAUAAAUAACAGACAGGAUAUCGAAUAUAGGAUAUAUGAGAAGGGUCGAUUGGUG (Eterna round: R96, puzzle: Same State NG 3)	63 nM	63.4 nM	90.7 nM	–	–	–
UAGUGAUUGCAAGGAUAUGCUAGUUUUUAUUUGUGUUUGAUAACAAACAUGAGGAUCACCCAUGUGCAGAAGGUGCAAGAUAUG [JR_SSNG2_Sub078] (Eterna round: R96, puzzle: Same State NG 2)	361 nM	193 nM	647 nM	–	–	–
GCUAGAAUUAACGCCUACAUGAGGAUCACCCAUGUAUGUAGGCAGGAUAUCGUUUGCAAAGCAAACGAGAAGGGCCUUACUAGC [Mat - Same State NG 3 - JL Mod - D31] (Eterna round: R96, puzzle: Same State NG 3)	31 nM	27.3 nM	46.5 nM	–	–	–
UUUACUUUCAUAGGAUAUCAUGCGAAAAUUGCGUGAGAAGGGUGAAUACUGUCUUUCUAAGAGUACAUGAGGAUCACCCAUGUA [SameState NG1 #64] (Eterna round: R96, puzzle: Same State NG 1)	45.8 nM	56.9 nM	51.2 nM	–	–	–
AAAGAAACUACAGGAUAUGCGUGGGAAAGAUAGGCAGAAGGGUGGAUAAUAAAUUCCAGCACAUGAGGAUCACCCAUGUACUGG [Ince] (Eterna round: R96, puzzle: Same State NG 1)	15.6 nM	17 nM	22.7 nM	–	–	–
AGGCUCAGAGCAGGAUAUAUGUAAUAACAUGAGGAUCACCCAUGUGUCGAGCUUCGGCUCGACACAUAGAAGGGCUCUGAGCCA [SSNG2/2-B1] (Eterna round: R96, puzzle: Same State NG 2)	28.8 nM	16.9 nM	45.9 nM	–	–	–
ACGCCCUCAGUAGGAUAUGGGAAAGGAAGUGUACCAGAAGGACUGGUUGAACAUGAGGAUCACCCAUGUUCAACGACAGGGCAA [PowerStrip SSNG 1.20] (Eterna round: R96, puzzle: Same State NG 1)	13.9 nM	18.6 nM	18.6 nM	–	–	–
CGAGCCGGCACUGAGGAUAUUCAUAUUUAAACAUGAGGAUCACCCAUGUAGGCCAGAAGGCCUUGGGAGAAGGCAGGUCGGCUCC [salish99_ss2_r3_080] (Eterna round: R96, puzzle: Same State 2)	220 nM	22.3 nM	312 nM	–	–	–
AUAAAACAUGAGGAUCACCCAUGUAAUCGCCAGACAGGAUAUAUAGUGGCAUUUGCAGGGAUAGAAGGGUCGUGGC [Lerainxege] (puzzle: Same State 1)	–	–	–	35.1 nM	15.6 nM	37 nM

Sequence	apparent KD of MS2 coat protein [1]	apparent KD of MS2 coat protein (input ligand: FMN 200 uM)	apparent KD of MS2 coat protein (input ligand: none)	apparent KD of MS2 coat protein [2]	apparent KD of MS2 coat protein [3]	apparent KD of MS2 coat protein [4]
GUGAAGAAUUAAGGAUAUUGAAUACAUAUGUUUAACAUGAGGAUCACCCAUGUGGGUUGCGGUAUCGAGAAGGUAAAUUACUGG [salish99_SSNG2_r04_032] (Eterna round: R96, puzzle: Same State NG 2)	81.7 nM	–	–	–	–	–
AGUCCAGCCUGAGCUGGACAAAGGCAUGUACAUGAGGAUCACCCAUGUUCAUGUACAAGCUUUUUGCUCGUCUUAAA [Zipper 52 - 1] (puzzle: Sensor for hsa-mir-208a)	–	–	–	11.4 nM	140 nM	181 nM
UACAAUCUAUCUGAGGAUAUCAUGAAUUACACAUGAGGAUCACCCAUGUGCAGGAAAACUGCAUAUGAGAAGGCAGAUAGAUUGU [salish99_ss2_r3_065] (puzzle: Same State 2)	–	–	–	1060 nM	81 nM	1970 nM
GGAAUAUUUACAGGAUAUGUUUUGUUAAGUCGAGCAGAAGGGUAGAUGUCUUACACGGUUUGUUACAUGAGGAUCACCCAUGUU [SameState NG1 #17] (Eterna round: R96, puzzle: Same State NG 1)	86.6 nM	–	–	–	–	–
GCCGCGUUUCGCGCCUACAUGAGGAUCACCCAUGUUUGUAGGCAGGAUAUCGUUUGCUUUGCAAUCGAGAAGGGCUGUUGUGGC [salish99_SSNG3_R04_014] (Eterna round: R96, puzzle: Same State NG 3)	44.6 nM	33 nM	56.6 nM	–	–	–
AUCUCUGUGCCGCAGGAUAUACCAACGGCUACAUGAGGAUCACCCAUGUCAUACCGUCGAAAGUGGUAGAAGGGUGUGCACGAGC [Reteonar] (puzzle: Same State 2)	–	–	–	90.6 nM	17.7 nM	113 nM
AUAAGUUUGAUGCUCGUCUCUCCGUACAAACAUGAGGAUCACCCAUGUGGUCGGGAAGUAGCCCGGCCAGUAUGGCA [Arbitius] (puzzle: Sensor for hsa-mir-208a)	–	–	–	17.9 nM	43.3 nM	47.3 nM
GUGCUCGUGUAAGGAUAUGCAGCCGUUUCGGCUGCAGAAGGUACUAUAAUACAUGAGGAUCACCCAUGUCUCUAUUGUUUGGUG [salish99_SSNG1_r04_906] (Eterna round: R96, puzzle: Same State NG 1)	76.3 nM	–	–	–	–	–
UUUAUAUUCAGAGGAUAUUGAUGUUGUAUUUUACAAGAAGGCUGAUUGUUUUGUAAUGUUAUUAAACAUGAGGAUCACCCAUGU [JR_SSNG1_Sub013] (Eterna round: R96, puzzle: Same State NG 1)	22.5 nM	19.7 nM	27.3 nM	–	–	–
AACAAUCUAUCUGAGGAUAUCAUGAAAAAAACAUGAGGAUCACCCAUGUGCAGGAAAACUGCAUAUGAGAAGGCAGAUAGAUUGC [salish99_SS2_r3_004] (puzzle: Same State 2)	–	–	–	785 nM	32.5 nM	1690 nM
GGUGCAAUUAACGCCUACAUGAGGAUCACCCAUGUAUGUAGGCAGGAUAUCGUUUGCUUUGCAAACGAGAAGGGCUGUAGUACC [JL SSNG3 1.14] (Eterna round: R96, puzzle: Same State NG 3)	89.3 nM	35.6 nM	84.5 nM	–	–	–
AGAUCAUGACGAGGAUAUGGUACAUGAGGAUCACCCAUGUAUGUACUAUAAUUCGAAUGAGGAAUCCAGAAGGCGUCGUGGUCA [JL SSNG2 1.15] (Eterna round: R96, puzzle: Same State NG 2)	29.6 nM	15.3 nM	55.4 nM	–	–	–
AAACGGCCCAACGGAGGGCCACAUGAGGAUCACCCAUGUACAUAGGAUAUCACGCCAACGAGGCGUGAGAAGGGUGAUUAAAAC [Bisomaor] (Eterna round: R96, puzzle: Same State NG 3)	8.11 nM	28.8 nM	73.5 nM	–	–	–
AGGCUCAGACGAGGAUAUAUGUCUCGAGCUUCGGCUCGAGACAUGAGGAUCACCCAUGUAAUAACAUAGAAGGUGUCUGAGCCA [SSNG2/1-C1] (Eterna round: R96, puzzle: Same State NG 2)	208 nM	49.1 nM	253 nM	–	–	–
AAUAAACAUGAGGAUCACCCAUGUAAUAUAAAUGGAGGAUAUGCAAUUAUUAAUUAUUAAGUAGAAGGUCGAAUAA [Lollin - Epsilon 1] (Eterna round: R96, puzzle: Same State 1)	67.5 nM	–	–	–	–	–
AGAUGUUAAUCAGGAUAUGGGCACAUGAGGAUCACCCAUGUAACGUAGAUACGAUGUGGUCAAGUCUAGAAGGGAUAGCUAACA [SameState NG2 #78] (Eterna round: R96, puzzle: Same State NG 2)	60.7 nM	125 nM	65.9 nM	–	–	–

— the supplement of paper PMC9170038
